Among the data in publication PMC6748592 are Kd values, retold here.

This experiment deals with CD52 peptide mimotope (…) (human). Put plainly: SPR. (In general: In SPR one partner is held on a chip, and binding of the other changes the refractive index at the surface.)

B1: MAB1 light chain N33D mutant (antibody, V domains shown)
VH: EVQLVESGGGLVQPGGSLRLSCAASGFPFSNYWMNWVRQAPGKGLEWVGQIRLKSNNYATHYAESVKGRFTISRDDSKNSLYLQMNSLKTEDTAVYYCTPIDYWGQGTTVTVSS
VL: DIVMTQTPLSLSVTPGQPASISCKSSQSLLYSDGKTYLNWVLQKPGQSPQRLIYLVSKLDSGVPDRFSGSGSGTDFTLKISRVEAEDVGVYYCVQGSHFHTFGQGTKLEIK
The Kd is the constant that tells how readily two partners part at equilibrium. Read a high Kd as lower affinity. Take B1: the Kd turned out to be 1250 nM.
